To fix the notation:
B1: ADI-14506 (antibody, V domains shown)
VH: QVQLVQSGAEVKKPGSSVKVSCKVAGGSFSNYAIAWLRQAPGQGLEWMGGIIPAFNRAMYARKFQDRVTITAYASTTTAYLDITGLRSEDTALYYCARPAGDFGDLKWVRSPFDYWGQGTLITVSS
VL: DIVMTQTPGTLSVSPGERATLSCRASQDVGINLAWYQQKPGQAPRLLIYGASTRATDVPAKFSGSGSGTDFTLTISSLQSEDFGVYYCQEYNDWPPQLSFGPGTKVDIK
notes: full-length IgG (yeast-expressed); also called Antibody Number 67; Ab# 67
B2: ADI-14511 (antibody, V domains shown)
VH: EVQLLESGAEVKKPGSSVKVSCKVAGGTFSDYAISWVRQAPGQGLEYLGGIIPAFKRAMYPRKFQDRVTITADESTSTAYMELRGLRSEDTALYYCARPAGDFGDLKWLRSPFDYWGQGTLVTVSS
VL: B1 VL with M4L, T7S, G9A, Q27E, D28G, V58I, K61R, G84A, E90Q, S99T
notes: full-length IgG (yeast-expressed); also called Antibody Number 72; Ab# 72
B3: ADI-14450 (antibody, V domains shown)
VH: QVQLVQSGGGLVKPGGSRRLACAASGFIFRNAWMSWVRQAPGKGLEWVGRIKRTSEGGSVDYATPVQGRFSISRDDSRNTLYLQMHSLAPDDTAVYYCSTGPPYSYFDSTGYSVVDYWGQGTLVTVSS
VL: QSVLTQPPSASGTPGQRVTISCSASSSNIGDNYFYWYQQLPGKAPTLLMYGSDQRSSGVPDRFSGSQSGTSASLAISGLRSEDEAAYYCAAWDDSLSGPVFGGGTQLTVL
notes: full-length IgG (yeast-expressed); also called Antibody Number 13; Ab# 13
B4: ADI-14523 (antibody, V domains shown)
VH: B3 VH with Q1E, Q6E, R18L, A21S, H86N, A89E, P90T, T110S
VL: B3 VL with A86D, Q106K
notes: full-length IgG (yeast-expressed); also called Antibody Number 83; Ab# 83
B5: ADI-14500 (antibody, V domains shown)
VH: EVQLLESGGGLVKPGGSLRLSCAASGFIFNNAWMTWVRQAPGRGLEWVGRIKTNADGGTADYSTPVKGRFAISRDDSTNTLYLQMNSLKTEDTAVYYCTTGPPYKYSDSTGYSVVDYWGQGTLVTVSS
VL: SYELTQPPSASGTPGQRVTISCSGSSSNIGSNYVYWYQQLPGTAPKLLIYSTNQRPSGVPDRFSGSQSGTSASLAISGLRSEDEADYYCAAWDDRLSGPVFGGGTQLTVL
notes: full-length IgG (yeast-expressed); also called Antibody Number 61; Ab# 61
B6: ADI-14513 (antibody, V domains shown)
VH: QVQLVQSGSEVKRPGSSVKVSCKASGVALTTVAVNWVRQVPGQGPEWIGGILIGFGKVRQAQKFENRVTFTADASRNTAYMELSGLRSEDTAVYYCAIIDPQDCTRASCFWVNWLAPWGHGTLVTVSS
VL: DIRVTQSPGTLTLSPGERASLSCRASESILNGNLAWYQQKPGQAPRLLIYAASSRATDIPDRFSGSGSGTDFTLTISRLEPQDFAVYYCQQYGSAPITFGQGTRLEIK
notes: full-length IgG (yeast-expressed); also called Antibody Number 74; Ab# 74
B7: ADI-14445 (antibody, V domains shown)
VH: EVQLLESGAVMKRPGSSVRVSCRASGVTLTTVSVNWVRQVPGQGPEWIGGILIGFGKVRQAQKFENRVTLTADASRNTAYMELSGLTSDDTAVYYCAIIDPQDCTRASCFWVNWLDPWGQGTLVTVSS
VL: B6 VL with V4M, S20T, E27Q, N31S, Y50S, S54T, S77T, G93D
notes: full-length IgG (yeast-expressed); also called Antibody Number 8; Ab# 8
B8: ADI-14510 (antibody, V domains shown)
VH: QVQLQQWGAEVKKPGSSVKVSCKASGVALSSVAISWVRQAPGQGLEWMGGILPGFDKVRFAQEFENRATLTADTARDIAYMELSGLRSDDTAVYYCAIIDPQDCTSASCFWVNWLDPWGQGTLVTVSS
VL: ETTLTQSPGTLTVSPGERATLSCRASQSIIRNNLAWYQQKPGQAPRLLIYAASNRATDIPDRFSGSGSGTDFTLTISRLEAQDFAVYFCQQYGTSPITFGQGTKVEIK
notes: full-length IgG (yeast-expressed); also called Antibody Number 71; Ab# 71
B9: ADI-14499 (antibody, V domains shown)
VH: QVQLVQSGPALVKPTQTLTLTCTFSGFSLTTRGVGVGWIRQTPGKALECLGFIYWDDDMNYNPSLRGRVTITRDTSKNQVVLTMTNMAPVDTGTYYCVHSDLYDSSGYYLYYFDYWGQGTLVTVSS
VL: DIRLTQSPSSLSASVGDRVTITCRASQPIASYLNWYQQKPGKAPKLLIYAASNLQSGVPSTFSGRGSGTDFSLTISTLQPEDIATYYCQQSYTSPYTFGQGTKVEIK
notes: full-length IgG (yeast-expressed); also called Antibody Number 60; Ab# 60
B10: ADI-14512 (antibody, V domains shown)
VH: EVQLVESGAEVKKPGSSVKVSCKVVGGSFSNYGISWVRQAPGQGPEWMGGIIPAFKTAKYAKKFEDRVTITADESTSTAYMEVSGLRSDDTALYYCARPERDFGHLKWLRSPFDYWGQGTLVTVSS
VL: ETTLTQSPATLSVSPGERVTLSCRASQGVSINLAWYQQKPGQAPRLLIYGASTRATDIPARFSGSGSGTDFTLTISSLQSEDFAVYYCQQYNDWPPQLTFGPGTKVEIK
notes: full-length IgG (yeast-expressed); also called Antibody Number 73; Ab# 73
B11: ADI-14507 (antibody, V domains shown)
VH: QITLKESGPTLVKPTQTLTLTCTLSGFSLSTPRMGVGWIRQPPGKALEWLALIDWDDDRRYSPSLKTRLTITKDTSKNQVVLRMTDMDPVDTGTYYCVHSDVYTTGGYYLYYFDYWGQGTLVTVSS
VL: DIQVTQSPSSLSASVGDRVTITCRASQTIPSYLNWYQHKPGKAPQLLIYAASNLRSGVPPRFRGSGSGTDFTLTVSSLQPEDFATYFCQQSYSSPYTFGQGTKLEIK
notes: full-length IgG (yeast-expressed); also called Antibody Number 68; Ab# 68
B12: ADI-14524 (antibody, V domains shown)
VH: EVQLVESGGGLVQPGGSLRLSCAASGFSFSDYSMNWVRQAPGKGLEWVSYITPSSRNKFYADSVRGRFTISRDNAENSLYLQMNSLRVEDTAVYYCVRSLHWGAAIERWDVWGQGTTVTVSS
VL: EIVLTQSPGTLSLSPGERATLSCRASQSISSSFFAWYQQTPGQAPRLLMYATSSRATGIPDRFSGSGSGTDFTLTISRVEPEDFAVYYCQQSGSSPYTFGQGTKVEIK
notes: full-length IgG (yeast-expressed); also called Antibody Number 84; Ab# 84
B13: ADI-14504 (antibody, V domains shown)
VH: EVQLVESGGGLVQPGGSLRLSCAASGFPFSRYNMNWVRQAPGKGLEWVSYISSGSRSIYYADSVKGRFTISRDNAKNSLYLQMNSLRAEDTAVYYCARDLSGSPAYSGSWVWGQGTLVTVSS
VL: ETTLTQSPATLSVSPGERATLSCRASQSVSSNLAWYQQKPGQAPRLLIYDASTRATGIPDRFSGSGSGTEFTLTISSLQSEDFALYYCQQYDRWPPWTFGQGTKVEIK
notes: full-length IgG (yeast-expressed); also called Antibody Number 65; Ab# 65

Positions count from the first letter of the chain named.

What is called Kd is the constant that tells how readily two partners part at equilibrium. A high value points to a looser complex.

The first test concerns the target RSV F protein of recombinant mKate-RSV, subtype A (strain A2) (Respiratory syncytial virus subtype A …, UniProt P03420 26-574). Kind of test: cell-based or functional assay.
As to B1, the “Neut IC50 subtype A” value was > 10 µg/mL.
Still for that read-out and setting: next, B2: > 10 µg/mL; B3: 0.195 µg/mL; B4: 0.239 µg/mL.
The same measure, in the same setting: with B5 the figure was 0.415 µg/mL.
B6: the “Neut IC50 subtype A” value was found to be 4.81 µg/mL.
Still for that read-out and setting: next, B7: > 10 µg/mL.
The same measure, in the same setting: next, B8: > 10 µg/mL.
On the same count and under the same terms, next, B9: > 10 µg/mL; B10: > 10 µg/mL.
With B11, the “Neut IC50 subtype A” value amounted to 0.319 µg/mL.
As for B12, the “Neut IC50 subtype A” value is 6.05 µg/mL.
As to B13, the “Neut IC50 subtype A” value turned out to be 2.81 µg/mL.

In a further test the target is RSV F protein of recombinant mKate-RSV, subtype B (18537) (Respiratory syncytial virus subtype B …, UniProt P13843 26-574). Kind of test: cell-based or functional assay.
B1: the “Neut IC50 subtype B” value came to 6.25 µg/mL.
Turning to B2, the “Neut IC50 subtype B” value was determined as 7.04 µg/mL.
Take B3: the “Neut IC50 subtype B” value came to 0.315 µg/mL.
Still for that read-out and setting: next, B4: 0.151 µg/mL; B5: 0.552 µg/mL; B6: 2.2 µg/mL.
Same read-out and setting: with B7 the figure was 1.21 µg/mL; with B8, > 10 µg/mL; with B9, > 10 µg/mL.
The same measure, in the same setting: next, B10: > 10 µg/mL; B11: 0.173 µg/mL; B12: 6 µg/mL.
With B13, the “Neut IC50 subtype B” value was found to be 13.4 µg/mL.

The target in a further test is T1, RSV F ectodomain stabilized in the postfusion conformation (F ΔFP), subtype A (Respiratory syncytial virus subtype A, UniProt P03420 26-109; P03420 147-524).
T1 construct: extracellular domain; trimer; furin-cleaved; also called Postfusion subtype A
Kind of test: BLI, IgG on AHQ sensor, 100 nM antigen. Background: In BLI a coated tip is dipped into the sample, and binding shifts an interference pattern.
In the case of B1, the dissociation constant Kd is 13.1 nM.
Same read-out and setting: with B2 the figure was 0.988 nM.
As for B3, the Kd was found to be 0.227 nM.
B4: the affinity, expressed as Kd, was 0.192 nM.
Molecule B5 displayed a Kd of 0.714 nM.
The same measure, in the same setting: with B6 the figure was 1.21 nM.
Consider B7, for which the affinity, expressed as Kd, was 4.92 nM.
Regarding B8, the Kd was found to be 0.783 nM.
B9: the Kd is 0.415 nM.
The same measure, in the same setting: with B10 the figure was 2.67 nM; with B11, 0.266 nM; with B12, 0.826 nM.
Still for that read-out and setting: next, B13: 0.583 nM.

In another test the target is T2, RSV F ectodomain stabilized in the postfusion conformation (F ΔFP), subtype B (Respiratory syncytial virus subtype B, UniProt P13843 26-109; P13843 147-524).
T2 construct: extracellular domain; trimer; also called Postfusion subtype B; postF subtype B
The test can be described thus: BLI, IgG on AHQ sensor, 100 nM antigen.
Take B1: the Kd worked out at 24.5 nM.
On the same count and under the same terms, next, B2: 1.25 nM.
B3: the affinity, expressed as Kd, was 0.142 nM.
The same measure, in the same setting: next, B4: 0.131 nM; B5: 0.127 nM; B6: 0.962 nM.
Same read-out and setting: next, B7: 15.2 nM.
Still for that read-out and setting: next, B8: 0.619 nM; B9: 2.99 nM; B10: 0.587 nM.
B11 yielded a Kd of 0.413 nM.
B12 showed an equilibrium dissociation constant (Kd) of 0.771 nM.
The same measure, in the same setting: next, B13: 0.52 nM.

(Values after US20250313612A1 (Adimab, published 2025).)
